{"source": "patent US20260232824A1", "about": "“ANTI-CD180 BINDING MOLECULES AND USES THEREOF” (Champions Oncology, Inc., priority 2023, published 2026)", "key": {"[1]": {"biological_target": "T1, CD19 (Homo sapiens, UniProt P15391)", "T1 construct": "endogenous in cells", "T1 sequence (P15391 20-556)": "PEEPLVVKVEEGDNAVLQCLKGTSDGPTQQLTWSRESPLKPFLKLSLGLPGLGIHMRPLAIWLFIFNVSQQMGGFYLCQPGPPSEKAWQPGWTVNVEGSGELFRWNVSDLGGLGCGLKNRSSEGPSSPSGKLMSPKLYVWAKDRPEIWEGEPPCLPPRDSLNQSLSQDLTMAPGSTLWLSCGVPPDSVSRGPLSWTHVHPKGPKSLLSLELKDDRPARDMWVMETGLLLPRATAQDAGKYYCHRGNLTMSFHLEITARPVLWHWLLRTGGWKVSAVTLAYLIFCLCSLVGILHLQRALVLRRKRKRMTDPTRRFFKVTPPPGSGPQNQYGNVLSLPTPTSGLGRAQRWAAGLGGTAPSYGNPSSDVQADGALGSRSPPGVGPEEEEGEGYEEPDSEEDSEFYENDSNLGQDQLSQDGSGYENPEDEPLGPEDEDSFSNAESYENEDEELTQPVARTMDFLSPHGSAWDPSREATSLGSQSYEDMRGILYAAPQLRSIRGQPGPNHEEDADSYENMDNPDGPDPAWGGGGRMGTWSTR", "test": "CD19 expression versus in vitro activity of comparative ADC", "type": "cell-based", "conditions": "FIG. 27A"}, "[2]": {"system": "panel of cancer cell lines", "conditions": "cited from earlier work"}}, "data": [{"molecule": "Lonca Tesirine: loncastuximab tesirine-lpyl", "values": [{"measurement": "correlation of CD19 expression with in vitro activity", "setting": "[1]", "result": "CD19 expression correlated with in vitro activity"}]}, {"molecule": "COc1cc2c(cc1OCCCCCOc1cc3c(cc1OC)C(=O)N1C=C(C)C[C@H]1C=N3)N=C[C@@H]1CC(C)=CN1C2=O", "note": "[SG3199]", "values": [{"measurement": "activity in a panel of cancer cell lines", "setting": "[2]", "result": "picomolar activity"}]}]}
